# In the supplement of paper PMC7125110:
# ± gives the standard error. Fewer inactive variants are shown than the library holds.
# B1: glmS ribozyme (parent)
# chain: AUAAAAGCGCCAGAACUACAGAAAUGUAGUUGACGAGGAGGAGGUUUAUCGAAUUUUCGGCGGAUGCCUCCAAA
# Experiments:
# Settings in all cases: with glucosamine-6-phosphate
# glucosamine-6-phosphate [1] = variants of: B1; test: self-cleavage kobs at 640 uM GlcN6P; higher = faster cleavage; RNA array
# Summary of the method: (§1)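 Glucosamine-6-phosphate in HEPES/KCl/Mg(OAc)2 buffer, at 40 μM to 10 mM, was flowed over barcoded ribozyme variants transcribed in situ by E. coli RNA polymerase on sequenced MiSeq chips. Tracking was through a hybridised Cy3 probe at 37 °C. kobs, kcat and KM came from exponential decay fits and weighted Michaelis–Menten fits of normalised per-tile medians.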
# glucosamine-6-phosphate [2] = variants of: B1; test: self-cleavage kobs at 2500 uM GlcN6P; higher = faster cleavage; RNA array
# Summary of the method: as §1
# glucosamine-6-phosphate [3] = variants of: B1; test: self-cleavage kobs at 10000 uM GlcN6P; higher = faster cleavage; RNA array
# Summary of the method: as §1
Variant,self-cleavage kobs at 640 uM GlcN6P (glucosamine-6-phosphate [1]) [s⁻¹],self-cleavage kobs at 2500 uM GlcN6P (glucosamine-6-phosphate [2]) [s⁻¹],self-cleavage kobs at 10000 uM GlcN6P (glucosamine-6-phosphate [3]) [s⁻¹]
A53G G62C,< 1e-05,< 1e-05,
G9U A12C G51C C67U,< 1e-05,< 1e-05,
G44U U47C C71U,< 1e-05,< 1e-05,
C34A G59U G60A G63U,< 1e-05,,
U55A C67A C70G,0.000113 ± 2.4e-05,7.88e-05 ± 1.6e-05,
A48C U56G G60A C61G,< 1e-05,,
G7U C58G,< 1e-05,,
A14U G44U U69C C71A,< 1e-05,,< 1e-05
A42G A53U C67G,0.00199 ± 0.00049,,0.00458 ± 0.0017
C8A U47C G51A,< 1e-05,< 1e-05,
G40C G51C G63C C71A,< 1e-05,< 1e-05,
G13C U56A U65A,< 1e-05,< 1e-05,
G35A G40U G43U G59A C67G,< 1e-05,< 1e-05,
A14U A53U C67G,0.000162 ± 4.5e-05,,
G32A G37U A48C G66C,< 1e-05,,
G41U G51C U69C,< 1e-05,< 1e-05,
A33C U54G A64C C70G,< 1e-05,< 1e-05,
A15C U49G G62U A64C C70U,< 1e-05,,
C11A A12C A53G U56G,6.8e-05 ± 1.5e-05,0.000323 ± 6.9e-05,
U31C A53G U65G,0.000195 ± 3.6e-05,0.000454 ± 7.6e-05,0.000519 ± 9.8e-05
C50G A52U G63C,< 1e-05,< 1e-05,
A52U C70G C71A,8.24e-05 ± 2.8e-05,,
U31C A36C U45G U65G C71U,< 1e-05,< 1e-05,
G29U G40C A52G C58A C68A,< 1e-05,< 1e-05,

Variant,self-cleavage kobs at 640 uM GlcN6P (glucosamine-6-phosphate [1]) [s⁻¹],self-cleavage kobs at 2500 uM GlcN6P (glucosamine-6-phosphate [2]) [s⁻¹],self-cleavage kobs at 10000 uM GlcN6P (glucosamine-6-phosphate [3]) [s⁻¹]
A15C A64C C71U,< 1e-05,,
G13U U69C,7.4e-05 ± 2.2e-05,0.000149 ± 3e-05,0.00027 ± 7.1e-05
A48C C70U C71G,< 1e-05,,
A6G U31G A53G,4.09e-05 ± 1.9e-05,0.000162 ± 3.5e-05,
U31C C67G C68G,5.49e-05 ± 1.6e-05,,
G7C G41U C67G,< 1e-05,,
A15G G29U C70U,0.000127 ± 2.4e-05,9.76e-05 ± 3.9e-05,
G7C A12C G32A C50A G60U,< 1e-05,,
A36G A42G U56G,< 1e-05,,
C11G U31G G35C C71U,< 1e-05,< 1e-05,
G7A A39U A53C A64C,< 1e-05,,
G32C G44U G51U A53U C58G,< 1e-05,,
U31C A42G C70U,0.000788 ± 0.00029,,
A36U A52G G62C C71A,< 1e-05,,
U30A U46G U55G,0.000157 ± 3.5e-05,0.000349 ± 6.6e-05,
A36G A39C A64U C71G,< 1e-05,< 1e-05,
G43C A53U U55A U57A,< 1e-05,,
U49C A52U G62U,< 1e-05,,
C10A G35A A42U U57G,< 1e-05,,
A15U G35C C50U,< 1e-05,,
A36C U57C C67U,< 1e-05,< 1e-05,
G35C G51U A64C,< 1e-05,< 1e-05,
G32U C34G U69G,8.49e-05 ± 2.2e-05,,
A14G A36C G66A,< 1e-05,,

Variant,self-cleavage kobs at 640 uM GlcN6P (glucosamine-6-phosphate [1]) [s⁻¹],self-cleavage kobs at 2500 uM GlcN6P (glucosamine-6-phosphate [2]) [s⁻¹],self-cleavage kobs at 10000 uM GlcN6P (glucosamine-6-phosphate [3]) [s⁻¹]
U31G C70A,0.000129 ± 2.6e-05,9.72e-05 ± 2.7e-05,0.000372 ± 0.00014
U47A G66U C68A,0.00243 ± 0.00077,5.79e-05 ± 1.7e-05,
A53G G66C C71G,8.43e-05 ± 2.2e-05,,
A12G G26U G41U U47C C70G,0.000117 ± 5.2e-05,,
A12U U31G U45G A53U,0.00024 ± 6.1e-05,0.00101 ± 0.00033,
C70U A72C,0.000987 ± 0.00042,0.0035 ± 0.0017,
A15U G37A,0.000117 ± 2.4e-05,0.000103 ± 2.8e-05,0.000568 ± 0.00011
U31A G66U C70U,0.00031 ± 6.9e-05,0.000329 ± 6.7e-05,
A14G A42G C67A,0.01 ± 0.0028,0.00856 ± 0.0041,
A12U A36C C68G,0.000173 ± 5.8e-05,,
G13C G51A U69G,4.99e-05 ± 1.8e-05,,
G7A G13C A14G U69G,< 1e-05,< 1e-05,
G43C U45G G63C U69G,< 1e-05,,
A36C G38U U49A,< 1e-05,< 1e-05,
G44A C50U G63U,< 1e-05,,
C16U G32U A36C C58U,< 1e-05,,
A14U A36U G38C G62A,< 1e-05,,
G29U A52U U65G C68G,0.000163 ± 5.2e-05,0.000217 ± 5.1e-05,
C10U A33U U56C C68A,< 1e-05,,
G9A G13C A64G C70U,< 1e-05,,
C11A G51U A53G A64C U69A,8.76e-05 ± 3.9e-05,,5.47e-05 ± 1.5e-05
A15C U56A U65G,5.97e-05 ± 2.3e-05,0.000177 ± 6.3e-05,0.000562 ± 0.00012
A15C C58U C61A C70U,6.5e-05 ± 2.2e-05,,
C10A U49C,< 1e-05,,

Variant,self-cleavage kobs at 640 uM GlcN6P (glucosamine-6-phosphate [1]) [s⁻¹],self-cleavage kobs at 2500 uM GlcN6P (glucosamine-6-phosphate [2]) [s⁻¹],self-cleavage kobs at 10000 uM GlcN6P (glucosamine-6-phosphate [3]) [s⁻¹]
G13U G40A,5.97e-05 ± 1.3e-05,6e-05 ± 1.2e-05,0.000183 ± 3.6e-05
A52C A53U C67U C68U,6.36e-05 ± 3e-05,9.26e-05 ± 4.1e-05,
U45A U57A,0.000159 ± 4.5e-05,0.000423 ± 7.9e-05,
G13U C58A U69A,6.33e-05 ± 2e-05,,
A14G U45G C58U G62A,< 1e-05,< 1e-05,
G13A G35C G51U,< 1e-05,,
A42C G51A U69A,< 1e-05,,
U49C G51A,< 1e-05,,< 1e-05
A53C U55G C71G,0.000116 ± 3.1e-05,,
A1G A12U A64C,0.000103 ± 3.6e-05,0.000485 ± 0.00019,0.000643 ± 0.00015
G43C C61U G62A,< 1e-05,,
G37C G40A C50G,< 1e-05,< 1e-05,
G38U G44C U56C,< 1e-05,< 1e-05,
G29C G35C G38U G51U G59A,< 1e-05,< 1e-05,
G35C A39C A52U G60C G63U,< 1e-05,< 1e-05,
A6C C8G U54C,< 1e-05,,
C34A G41C C70U,< 1e-05,,
G32U C34G G41C A53U A64C U65G,< 1e-05,< 1e-05,
G7U C34U A39C U69C,< 1e-05,,
U31C C34A G59U,< 1e-05,< 1e-05,
A6G A36U A42G G44U G60C,< 1e-05,,
G41C G60U U65C C67G C68A,< 1e-05,,
C16G G62U G66C,< 1e-05,,
G35U G63U U65A,< 1e-05,< 1e-05,

Variant,self-cleavage kobs at 640 uM GlcN6P (glucosamine-6-phosphate [1]) [s⁻¹],self-cleavage kobs at 2500 uM GlcN6P (glucosamine-6-phosphate [2]) [s⁻¹],self-cleavage kobs at 10000 uM GlcN6P (glucosamine-6-phosphate [3]) [s⁻¹]
A15U C34U G41U C71U,< 1e-05,,
U47A G51A C71G,0.0001 ± 3.9e-05,,
G26U G32U,0.000131 ± 4.5e-05,0.000943 ± 0.00021,
G44C U47G,< 1e-05,,
A6C A15U G29A A53G,< 1e-05,,
G35A G37A U57A C68A,0.000784 ± 0.00036,,
C10G C61G A64U,< 1e-05,< 1e-05,
G40C A48G U56G G59U A64C C70G,< 1e-05,,
C10U C11A G43A C68G C70U,< 1e-05,,
G38A G44A G51U U54G,< 1e-05,,
A15U U30A A53U C58A U65C U69A C71G,4.92e-05 ± 2e-05,,
G32U C58A C70G,0.000218 ± 7.9e-05,0.000221 ± 5.9e-05,
G37U G38U G43A,< 1e-05,,
A6U A39G A48G,< 1e-05,< 1e-05,
C11U G43A U46A U55G U65G G66A,< 1e-05,< 1e-05,
A53C G60A G66A,< 1e-05,,
A42C U54A U65C,< 1e-05,,
A12U G13A G29A U45G,< 1e-05,< 1e-05,
A33U C34G,< 1e-05,< 1e-05,< 1e-05
G44A A53U U54G C61U,< 1e-05,,
G9U A14U C16A G32U A36G,< 1e-05,,
A12C C34G G40U,< 1e-05,< 1e-05,
G9U U30G C68U,< 1e-05,,
A15C C16G A39C,3.83e-05 ± 1.7e-05,0.000198 ± 3.4e-05,

Variant,self-cleavage kobs at 640 uM GlcN6P (glucosamine-6-phosphate [1]) [s⁻¹],self-cleavage kobs at 2500 uM GlcN6P (glucosamine-6-phosphate [2]) [s⁻¹],self-cleavage kobs at 10000 uM GlcN6P (glucosamine-6-phosphate [3]) [s⁻¹]
C50U C58A C68U,8.66e-05 ± 2.6e-05,,
C11U G29C U31A C34A A52C G60U,< 1e-05,< 1e-05,
A15C C16G U55C C61G,< 1e-05,,
G32U A33U C34A A36C,< 1e-05,< 1e-05,
U31G U65A,0.000295 ± 0.00011,,0.00166 ± 0.00049
G9U U49A C71A,< 1e-05,,
U31A C50G C61G,0.000119 ± 4.7e-05,0.000103 ± 3.8e-05,
G7U G13A A15C A36U G43A C67U,< 1e-05,< 1e-05,
C8G A64C C68G,< 1e-05,< 1e-05,
C11U A12C G13U G38U U56A C71U,< 1e-05,< 1e-05,
C11G G59C C67G,0.000111 ± 4e-05,0.00023 ± 6.2e-05,
A12C C70G C71G,5.18e-05 ± 2.5e-05,4.37e-05 ± 1.9e-05,
C10G C11A C58A G66U,< 1e-05,,
A14U A42C G51U,< 1e-05,,
G51U G63C G66U U69A C70A,< 1e-05,,
G41U C50U G63U,< 1e-05,< 1e-05,< 1e-05
G29U A53G U57C C67G U69A,0.000459 ± 0.00022,,
C16U G66U C68G,0.000124 ± 4.1e-05,,
G21U U45C C68U,0.000572 ± 0.0001,0.000312 ± 8e-05,0.00114 ± 0.00043
C8U G60A U65C,< 1e-05,,
G9U U30C C34U C58U G66U C70G,< 1e-05,,< 1e-05
